# Like-named read-outs stand apart in the source and are kept apart here.
# Columns and labels:
# [1] = Partition coefficient (Log D), 1-octanol/PBS; type: physicochemical; conditions: 1-octanol and PBS (pH 7.4), n = 3
# Procedure: Partition coefficients (Log D) of ^99mTc-HYNIC-ADH-1 were measured through the assessment of the distribution of radioactivity in 1-octanol and phosphate buffer in a 2 mL centrifuge tube. A 10 µL ^99mTc-HYNIC-ADH-1 solution was added to a vial containing 1 mL each of 1-octanol and PBS (pH 7.4). After vortexing for 10 min, the vial was centrifuged for 10 min to ensure complete separation of the layers. Then, 10 µL of each layer was pipetted into separate test tubes, and the counts were measured using a γ counter. Partition coefficients are shown as the log counts in 1-octanol vs. PBS layers (n = 3).
# [2] = Pharmacokinetic studies (blood radioactivity, PK solver); type: in vivo; conditions: C57/BL6 mice, i.v.
# Procedure: For the pharmacokinetic studies, four C57/BL6 mice weighing 18–20 g were administrated with ^99mTc-HYNIC-ADH1 (0.1 mL, 0.74 MBq) by i.v. injection into the tail vein. An array of blood samples was acquired and weighed by pinching the tail with a syringe at 2, 5, 15, 20, 30, 45, 60, 90, 120 and 240 min post-injection (p.i.). Radioactivity was calculated as the % of dose per g of tissue per body weight (%ID/g) expressed over time. […] Pharmacokinetics was assayed using PK solver 2.0.
# [3] = Biodistribution in xenograft-bearing nude mice, organs; type: in vivo, BALB/c nude mice; conditions: mouse, iv, 0.74 MBq, i.v.; for tissue uptake at 0.5 h: 30 min; for tissue uptake at 1 h: 60 min; for tissue uptake at 2 h: 120 min; for tissue uptake at 4 h: 240 min
# Procedure: (§1) All animal research was performed in accordance with the Zhejiang University Institutional Animal Care and Use Committee guidelines. PC9 and PC9GR cells (2 × 10^6 cells per mice) were injected subcutaneously into the flanks of 2- to 4-week old BALB/c nude mice (left: PC9GR, right: PC9). The cells were allowed to grow 3–5 weeks until tumors were 1 ± 0.5 cm^3 in volume. Normal C57/BL6 mice (aged 6 to 8 wks old) were obtained from the Animal Center of the First Affiliated Hospital of Zhejiang University. All animals were maintained with free access to food and water and used a standard diet, bedding and environment.
# The radiotracer (0.1 mL, 0.74 MBq) was injected intravenously into normal C57/BL6 mice and xenograft models as previously described (n = 4 per group per time) via the tail vein. After different time intervals (30, 60, 120 and 240 min), the mice were sacrificed by cervical dislocation, and their blood, tumors and major organs (brain, heart, lung, liver, spleen, kidney, stomach, intestine, muscle, bone and skin) were harvested and weighed. The radioactivity of each sample was measured with a γ-counter. Values are shown as the percentage of the injected dose per gram (%ID/g), which corrected for background and decay to maintain consistency.
# PC9 tumor = assay: Small animal SPECT/CT imaging, ROI analysis; type: in vivo, BALB/c nude mice; conditions: non-blocked, 1 h
# Procedure: as §1
# (§2) Xenograft models were imaged using a nanoScan SPECT/CT (Mediso, Hungary) in vivo imaging system and anesthetized with 2% isoflurane before imaging. Mice in the non-blocked group (n = 4) were injected via tail vein with 3.7 MBq (100 μL) of radiotracer and imaged at different time points (1, 2 and 6 h). In the blocked group, 100 μL excess ADH-1 was injected through the tail vein 30 min in advance, and then the same volume and dose of imaging agent were injected for 1 h after imaging.
# (§3) Three-dimensional ROIs were delineated along the edge of the tumor using SPECT/CT analysis software. Spherical ROIs of 0.03 cm^3 were delineated in organs or tissues (liver and muscle). The radiation intensity of each region was measured, and the tumor/non-tumor ratio was calculated.
# PC9GR tumor = assay: Small animal SPECT/CT imaging, ROI analysis; type: in vivo, BALB/c nude mice; conditions: 1 h
# Procedure: as §1, §2, §3
# [4] = blood, read-out: Biodistribution, Blood
# [5] = bone, read-out: Biodistribution, Bone
# [6] = brain, read-out: Biodistribution, Brain
# [7] = heart, read-out: Biodistribution, Heart
# [8] = intestine, read-out: Biodistribution, Intestine
# [9] = kidney, read-out: Biodistribution, Kidney
# [10] = liver, read-out: Biodistribution, Liver
# [11] = lung, read-out: Biodistribution, Lung
# [12] = muscle, read-out: Biodistribution, Muscle
# [13] = skin, read-out: Biodistribution, Skin
# [14] = spleen, read-out: Biodistribution, Spleen
# [15] = stomach, read-out: Biodistribution, Stomach
smiles,measurement,setting,value
"CC(=O)N[C@H]1CSSC[C@@H](C(=O)NCCNC(=O)c2ccc(NN)nc2)NC(=O)[C@H](C(C)C)NC(=O)[C@H](C)NC(=O)[C@H](Cc2c[nH]cn2)NC1=O [^99mTc-HYNIC-ADH-1, metal not drawn]",logD,[1],-2.45 ± 0.1
same,AUC(0–t),[2],0.0593 µg·min/L
same,AUC(0–∞),[2],0.0595 µg·min/L
same,K10,[2],0.0815 min⁻¹
same,K12,[2],0.1511 min⁻¹
same,K21,[2],0.0794 min⁻¹
same,V1,[2],68.753 L/kg
same,T1/2α,[2]; two-compartment model,2.3925 min
same,half-life,"[2]; mouse, blood, iv, 0.74 MBq, two-compartment model, read-out: T1/2β",31 min
same,tissue uptake at 0.5 h,[3]; [4],1.35 ± 0.18 %ID/g
same,tissue uptake at 1 h,[3]; [4],0.84 ± 0.03 %ID/g
same,tissue uptake at 2 h,[3]; [4],0.49 ± 0.05 %ID/g
same,tissue uptake at 4 h,[3]; [4],0.48 ± 0.2 %ID/g
same,tissue uptake at 0.5 h,[3]; [5],0.46 ± 0.03 %ID/g
same,tissue uptake at 1 h,[3]; [5],0.37 ± 0.04 %ID/g
same,tissue uptake at 2 h,[3]; [5],0.26 ± 0.04 %ID/g
same,tissue uptake at 4 h,[3]; [5],0.21 ± 0.01 %ID/g
same,tissue uptake at 0.5 h,[3]; [6],0.05 ± 0.01 %ID/g
same,tissue uptake at 1 h,[3]; [6],0.07 ± 0.01 %ID/g
same,tissue uptake at 2 h,[3]; [6],0.05 %ID/g
same,tissue uptake at 4 h,[3]; [6],0.03 %ID/g
same,tissue uptake at 0.5 h,[3]; [7],0.57 ± 0.03 %ID/g
same,tissue uptake at 1 h,[3]; [7],0.42 ± 0.08 %ID/g
same,tissue uptake at 2 h,[3]; [7],0.28 ± 0.01 %ID/g
same,tissue uptake at 4 h,[3]; [7],0.23 ± 0.01 %ID/g
same,tissue uptake at 0.5 h,[3]; [8],0.43 ± 0.03 %ID/g
same,tissue uptake at 1 h,[3]; [8],1.38 ± 1.01 %ID/g
same,tissue uptake at 2 h,[3]; [8],0.58 ± 0.12 %ID/g
same,tissue uptake at 4 h,[3]; [8],0.88 ± 0.38 %ID/g
same,tissue uptake at 0.5 h,[3]; [9],3.77 ± 1 %ID/g
same,tissue uptake at 1 h,[3]; [9],2.85 ± 0.54 %ID/g
same,tissue uptake at 2 h,[3]; [9],3.13 ± 0.7 %ID/g
same,tissue uptake at 4 h,[3]; [9],3.13 ± 0.54 %ID/g
same,tissue uptake at 0.5 h,[3]; [10],0.76 ± 0.06 %ID/g
same,tissue uptake at 1 h,[3]; [10],0.66 ± 0.06 %ID/g
same,tissue uptake at 2 h,[3]; [10],0.59 ± 0.01 %ID/g
same,tissue uptake at 4 h,[3]; [10],0.55 ± 0.1 %ID/g
same,tissue uptake at 0.5 h,[3]; [11],1.5 ± 0.04 %ID/g
same,tissue uptake at 1 h,[3]; [11],1.2 ± 0.16 %ID/g
same,tissue uptake at 2 h,[3]; [11],0.68 ± 0.11 %ID/g
same,tissue uptake at 4 h,[3]; [11],0.56 ± 0.08 %ID/g
same,tissue uptake at 0.5 h,[3]; [12],0.5 ± 0.47 %ID/g
same,tissue uptake at 1 h,[3]; [12],0.47 ± 0.1 %ID/g
same,tissue uptake at 2 h,[3]; [12],0.24 ± 0.01 %ID/g
same,tissue uptake at 4 h,[3]; [12],0.25 ± 0.04 %ID/g
same,tissue uptake at 0.5 h,[3]; [13],1.22 ± 0.05 %ID/g
same,tissue uptake at 1 h,[3]; [13],1.33 ± 0.33 %ID/g
same,tissue uptake at 2 h,[3]; [13],1.21 ± 0.44 %ID/g
same,tissue uptake at 4 h,[3]; [13],1.73 ± 0.08 %ID/g
same,tissue uptake at 0.5 h,[3]; [14],0.35 ± 0.03 %ID/g
same,tissue uptake at 1 h,[3]; [14],0.27 ± 0.02 %ID/g
same,tissue uptake at 2 h,[3]; [14],0.22 ± 0.02 %ID/g
same,tissue uptake at 4 h,[3]; [14],0.2 ± 0.01 %ID/g
same,tissue uptake at 0.5 h,[3]; [15],1.16 ± 0.18 %ID/g
same,tissue uptake at 1 h,[3]; [15],0.78 ± 0.32 %ID/g
same,tissue uptake at 2 h,[3]; [15],0.73 ± 0.31 %ID/g
same,tissue uptake at 4 h,[3]; [15],0.69 ± 0.29 %ID/g
same,"T/N (tumor to adjacent muscle radioactivity intensity, SPECT/CT ROI)",PC9 tumor,3.66 ± 0.78
same,"T/N (tumor to adjacent muscle radioactivity intensity, SPECT/CT ROI)",PC9GR tumor; blocked group (excess unlabeled ADH-1 30 min in advance),3.69 ± 0.50
same,"T/N (tumor to adjacent muscle radioactivity intensity, SPECT/CT ROI)",PC9GR tumor; non-blocked,7.73 ± 0.54

# Reference: article PMC9913320, “Development of ^99mTc-Hynic-Adh-1 Molecular Probe Specifically Targeting N-Cadherin and Its Preliminary Experimental Study in Monitoring Drug Resistance of Non-Small-Cell Lung Cancer” (Cancers, 2023)
